The results in this text go back to US20260167721A1 (ABLEXIS, published 2026).

In test [1] the target is T1, recombinant human CD3 epsilon/gamma heterodimer (human, UniProt P07766 23-126; P09693 23-116).
T1 construct: Recombinant protein in solution (200-50 nM) in the Octet assay; also called hCD3 E/G
Description: Octet BLI, mAb on FAB2G sensor, hCD3 E/G 200-50 nM; R^2 0.90.

For test [2], the target named is T2, recombinant human CD3 epsilon/delta heterodimer (human, UniProt P07766 23-126; P04234 22-105).
T2 construct: Recombinant protein in solution (200-50 nM) in the Octet assay; also called hCD3 E/D; human CD3E/D
T2 sequence (P07766 23-126, stated change not applied, chain 1 of 2): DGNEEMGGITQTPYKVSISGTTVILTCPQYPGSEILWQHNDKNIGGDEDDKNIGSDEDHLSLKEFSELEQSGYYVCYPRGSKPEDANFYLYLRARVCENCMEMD
T2 sequence (P04234 22-105, stated change not applied, chain 2 of 2): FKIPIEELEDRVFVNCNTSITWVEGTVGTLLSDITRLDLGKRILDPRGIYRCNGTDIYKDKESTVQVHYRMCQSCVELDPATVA
Nature of the test: Octet BLI, mAb on FAB2G sensor, hCD3 E/D 200-50 nM; R^2 0.98.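 Further: antibodies purified from hybridoma supernatants, measured by Octet binding to recombinant human CD3 protein.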
Description: Samples were evaluated by flow cytometry analysis against Jurkat and human Pan-T cells (FIG. 1B) as well as by Octet against recombinant human CD3 proteins to evaluate apparent affinities and binding off-rates (Table 6, infra).

T1 sequence (P07766 23-126, chain 1 of 2): as the sequence (P07766 23-126, stated change not applied, chain 1 of 2) above
T1 sequence (P09693 23-116, chain 2 of 2): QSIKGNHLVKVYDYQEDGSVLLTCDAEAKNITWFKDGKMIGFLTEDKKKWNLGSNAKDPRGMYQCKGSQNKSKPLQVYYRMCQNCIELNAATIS

B1: ABL-CD3-44 (antibody, V domains shown)
VH: EVQLVESGGGLVQPGGSLRLSCAASGFTFSTYWMSWVRQAPGKGLEWVANIKQDGSEKYYVDSVKGRFTISRDNAKNSLYLQMNSLRAEDTAVYYCATGSFDYWGQGTLVTVSS
VL: QPVLTQPSSHSASSGASVRLTCMLSSGFSVGDFWIRWYQQKPGNPPRYLLFYHSDSNKGQGSGVPSRFSGSNDASANAGILRISGLQPEDEADYYCGTWHSNSKTWVFGGGTKLTVL
notes: Chimeric hybridoma mAb: human V, CH1, upper hinge; mouse middle hinge, CH2, CH3
Turning to B1, the Kd in test [1] was less than 0.001 nM. In test [2], the Kd amounted to 356 nM, the Response was determined as 0.03, the koff is 0.000184 s⁻¹ and the kon came to 517 M⁻¹ s⁻¹.
